Patent publication US20190142971A1, “FORMULATION AND DELIVERY OF MODIFIED NUCLEOSIDE, NUCLEOTIDE, AND NUCLEIC ACID COMPOSITIONS” (ModernaTX, Inc., priority 2013, published 2019)

Key:
Format in all cases: in vivo
[1] = system: non-human primates (cynomolgus monkey); assay: Example 22: NHP serum chemistry ALT and AST (Tables 45, 46)
mice = assay: Example 18: time course LNP IV in mice, serum EPO/G-CSF ELISA (Table 35); details: for EPO / G-CSF Serum Concentration: mice, LNP IV
Protocol: (§1) Formulations, listed in Table 33, were characterized by particle size, zeta potential, and encapsulation.
LNP formulations, shown in Table 33 (above), were administered to mice (n=5) intravenously (IV) at a single modified mRNA dose of 0.5, 0.05 or 0.005 mg/kg. The mice were bled at 8 hours, 24 hours, 72 hours and 6 days after they were administered with G-CSF or EPO modified mRNA formulations to determine protein expression using ELISA.

rats = assay: Example 17: LNP IV, IM, SC in rats, serum EPO/G-CSF ELISA (Table 34); details: for EPO / G-CSF Serum Concentration: LNP 0.05 mg/kg
Protocol: as §1
LNP formulations, shown in Table 33 (above), were administered to rats (n=5) intravenously (IV), intramuscularly (IM) or subcutaneously (SC) at a single modified mRNA dose of 0.05 mg/kg. A control group of rats (n=4) was untreated. […] The rats administered EPO modified mRNA intravenously were also bled at 7 days.

[2] = 0.005 mg/kg, 2 days, Female NHP
[3] = 0.005 mg/kg, 4 days, Female NHP
[4] = 0.005 mg/kg, 7 days, Female NHP
[5] = 0.005 mg/kg, 14 days, Female NHP
[6] = 0.005 mg/kg, Pre-dose, Female NHP
[7] = 0.005 mg/kg, Pre-dose, Male NHP
[8] = 0.05 mg/kg, 14 days, Female NHP
[9] = 0.05 mg/kg, Pre-dose, Female NHP
[10] = 0.5 mg/kg, Pre-dose, Female NHP

B1: G-CSF: modified mRNA encoding human G-CSF, SEQ ID NO: 4, Cap1, fully modified with 5-methylcytosine and pseudouridine; LNP-formulated in Examples 16-22 (nucleic acid)
chain: GGGAAAUAAGAGAGAAAAGAAGAGUAAGAAGAAAUAUAAGAGCCACCAUGGCCGGUCCCGCGACCCAAAGCCCCAUGAAACUUAUGGCCCUGCAGUUGCUGCUUUGGCACUCGGCCCUCUGGACAGUCCAAGAAGCGACUCCUCUCGGACCUGCCUCAUCGUUGCCGCAGUCAUUCCUUUUGAAGUGUCUGGAGCAGGUGCGAAAGAUUCAGGGCGAUGGAGCCGCACUCCAAGAGAAGCUCUGCGCGACAUACAAACUUUGCCAUCCCGAGGAGCUCGUACUGCUCGGGCACAGCUUGGGGAUUCCCUGGGCUCCUCUCUCGUCCUGUCCGUCGCAGGCUUUGCAGUUGGCAGGGUGCCUUUCCCAGCUCCACUCCGGUUUGUUCUUGUAUCAGGGACUGCUGCAAGCCCUUGAGGGAAUCUCGCCAGAAUUGGGCCCGACGCUGGACACGUUGCAGCUCGACGUGGCGGAUUUCGCAACAACCAUCUGGCAGCAGAUGGAGGAACUGGGGAUGGCACCCGCGCUGCAGCCCACGCAGGGGGCAAUGCCGGCCUUUGCGUCCGCGUUUCAGCGCAGGGCGGGUGGAGUCCUCGUAGCGAGCCACCUUCAAUCAUUUUUGGAAGUCUCGUACCGGGUGCUGAGACAUCUUGCGCAGCCGUGAAGCGCUGCCUUCUGCGGGGCUUGCCUUCUGGCCAUGCCCUUCUUCUCUCCCUUGCACCUGUACCUCUUGGUCUUUGAAUAAAGCCUGAGUAGGAAG
modifications: Cap1, 5-methylcytosine, pseudouridine
Molecule B1 has an ALT [1, 2] of 32 U/L, an AST [1, 2] of 34 U/L and an ALT ([1]; 0.005 mg/kg, 2 days, Male NHP) of 39 U/L. For the same molecule, the AST ([1]; 0.005 mg/kg, 2 days, Male NHP) was 70 U/L, the ALT [1, 3] was 58 U/L and the AST [1, 3] was 36 U/L. For the same molecule, the ALT ([1]; 0.005 mg/kg, 4 days, Male NHP) was 48 U/L, the AST ([1]; 0.005 mg/kg, 4 days, Male NHP) was 39 U/L and the ALT [1, 4] was 55 U/L. It also gave an AST [1, 4] of 31 U/L, an ALT ([1]; 0.005 mg/kg, 7 days, Male NHP) of 29 U/L and an AST ([1]; 0.005 mg/kg, 7 days, Male NHP) of 28 U/L. It also gave an ALT [1, 5] of 46 U/L, an AST [1, 5] of 20 U/L and an ALT ([1]; 0.005 mg/kg, 14 days, Male NHP) of 44 U/L. The AST ([1]; 0.005 mg/kg, 14 days, Male NHP) was 39 U/L, the ALT [1, 6] was 51 U/L and the AST [1, 6] was 54 U/L. For the same molecule, the ALT [1, 7] was 43 U/L, the AST [1, 7] was 35 U/L and the ALT ([1]; 0.05 mg/kg, 2 days, Female NHP) was 39 U/L. It also gave an AST ([1]; 0.05 mg/kg, 2 days, Female NHP) of 34 U/L, an ALT ([1]; 0.05 mg/kg, 2 days, Male NHP) of 82 U/L and an AST ([1]; 0.05 mg/kg, 2 days, Male NHP) of 95 U/L. For the same molecule, the ALT ([1]; 0.05 mg/kg, 4 days, Female NHP) was 56 U/L, the AST ([1]; 0.05 mg/kg, 4 days, Female NHP) was 42 U/L and the ALT ([1]; 0.05 mg/kg, 4 days, Male NHP) was 88 U/L. The AST ([1]; 0.05 mg/kg, 4 days, Male NHP) was 69 U/L, the ALT ([1]; 0.05 mg/kg, 7 days, Female NHP) was 73 U/L and the AST ([1]; 0.05 mg/kg, 7 days, Female NHP) was 52 U/L. For the same molecule, the ALT ([1]; 0.05 mg/kg, 7 days, Male NHP) was 73 U/L, the AST ([1]; 0.05 mg/kg, 7 days, Male NHP) was 62 U/L and the ALT [1, 8] was 31 U/L. It also gave an AST [1, 8] of 20 U/L, an ALT ([1]; 0.05 mg/kg, 14 days, Male NHP) of 50 U/L and an AST ([1]; 0.05 mg/kg, 14 days, Male NHP) of 59 U/L. It also gave an ALT [1, 9] of 53 U/L, an AST [1, 9] of 33 U/L and an ALT ([1]; 0.05 mg/kg, Pre-dose, Male NHP) of 58 U/L. The AST ([1]; 0.05 mg/kg, Pre-dose, Male NHP) was 99 U/L, the ALT ([1]; 0.5 mg/kg, 2 days, Female NHP) was 209 U/L and the AST ([1]; 0.5 mg/kg, 2 days, Female NHP) was 294 U/L. For the same molecule, the ALT ([1]; 0.5 mg/kg, 2 days, Male NHP) was 63 U/L, the AST ([1]; 0.5 mg/kg, 2 days, Male NHP) was 196 U/L and the ALT ([1]; 0.5 mg/kg, 4 days, Female NHP) was 98 U/L. For the same molecule, the AST ([1]; 0.5 mg/kg, 4 days, Female NHP) was 63 U/L, the ALT ([1]; 0.5 mg/kg, 4 days, Male NHP) was 70 U/L and the AST ([1]; 0.5 mg/kg, 4 days, Male NHP) was 67 U/L. It also gave an ALT ([1]; 0.5 mg/kg, 7 days, Female NHP) of 149 U/L, an AST ([1]; 0.5 mg/kg, 7 days, Female NHP) of 68 U/L and an ALT ([1]; 0.5 mg/kg, 7 days, Male NHP) of 41 U/L. It also gave an AST ([1]; 0.5 mg/kg, 7 days, Male NHP) of 53 U/L, an ALT ([1]; 0.5 mg/kg, 14 days, Female NHP) of 145 U/L and an AST ([1]; 0.5 mg/kg, 14 days, Female NHP) of 67 U/L. For the same molecule, the ALT ([1]; 0.5 mg/kg, 14 days, Male NHP) was 43 U/L, the AST ([1]; 0.5 mg/kg, 14 days, Male NHP) was 47 U/L and the ALT [1, 10] was 216 U/L. The AST [1, 10] was 47 U/L, the ALT ([1]; 0.5 mg/kg, Pre-dose, Male NHP) was 29 U/L and the AST ([1]; 0.5 mg/kg, Pre-dose, Male NHP) was 32 U/L. For the same molecule, the “protein expression detectable out to” value (mice; mice IV, 0.005 mg/kg and 0.05 mg/kg) was 72 h, the “EPO / G-CSF Serum Concentration” value (mice; 0.005 mg/kg, 8 hours) was 11,550.6 pg/ml and the “EPO / G-CSF Serum Concentration” value (mice; 0.005 mg/kg, 24 hours) was 5,068.9 pg/ml. For the same molecule, the “EPO / G-CSF Serum Concentration” value (mice; 0.05 mg/kg, 8 hours) was 462,312.5 pg/ml, the “EPO / G-CSF Serum Concentration” value (mice; 0.05 mg/kg, 24 hours) was 80,903.8 pg/ml and the “EPO / G-CSF Serum Concentration” value (mice; 0.5 mg/kg, 8 hours) was >1,250,000 pg/ml. The “EPO / G-CSF Serum Concentration” value (mice; 0.5 mg/kg, 24 hours) was 495,812.5 pg/ml, the “EPO / G-CSF Serum Concentration” value (mice; 0.5 mg/kg, 72 hours) was 1,325.6 pg/ml and the “protein expression detectable out to” value (rats; IV) was 7 days. For the same molecule, the “EPO / G-CSF Serum Concentration” value (rats; IM, 2 hours) was 1620.4 pg/mL, the “EPO / G-CSF Serum Concentration” value (rats; IM, 8 hours) was 7910.4 pg/mL and the “EPO / G-CSF Serum Concentration” value (rats; IM, 24 hours) was 893.3 pg/mL. The “EPO / G-CSF Serum Concentration” value (rats; IM, 48 hours) was “OSC”, the “EPO / G-CSF Serum Concentration” value (rats; IM, 5 days) was “OSC” and the “EPO / G-CSF Serum Concentration” value (rats; IV, 2 hours) was 31,331.9 pg/ml. For the same molecule, the “EPO / G-CSF Serum Concentration” value (rats; IV, 8 hours) was 70,532.4 pg/ml, the “EPO / G-CSF Serum Concentration” value (rats; IV, 24 hours) was 5,738.6 pg/ml and the “EPO / G-CSF Serum Concentration” value (rats; IV, 48 hours) was 233.8 pg/mL. The “EPO / G-CSF Serum Concentration” value (rats; IV, 5 days) was 60.4 pg/mL, the “EPO / G-CSF Serum Concentration” value (rats; SC, 2 hours) was 80.3 pg/mL and the “EPO / G-CSF Serum Concentration” value (rats; SC, 8 hours) was 164.2 pg/mL. The “EPO / G-CSF Serum Concentration” value (rats; SC, 24 hours) was “OSC”, the “EPO / G-CSF Serum Concentration” value (rats; SC, 48 hours) was “OSC” and the “EPO / G-CSF Serum Concentration” value (rats; SC, 5 days) was “OSC”. For the same molecule, the “protein expression detectable to” value (rats; subcutaneous and intramuscular) was “at least 8 hours”.
